From patent publication US9144594B2, “Cathepsin L mediated diseases and associated methods and products” (University of Miami, priority 2005, dated 2015)
Entries after “also recorded” stand apart in the source; their conditions may differ.

Experiments:
mice = test: Protein in urine after in vivo gene delivery of dynamin mutants into healthy mice (Bradford); parameters: species or system mouse
Method: Next, the level of urinary protein loss following gene delivery of dynamin mutants was examined (Table 2). […] The expression of K44A was associated with severe proteinuria (1.18 mg/ml) at peak gene expression time of 10 hours post injection. The reduction in gene expression was paralleled by a reduction in proteinuria (0.77 mg/ml). Gene transfer of dynR725A caused an increase in proteinuria (0.58 mg/ml). Although this was not a significant increase, it is probable that it is a consequence of the partial podocyte FP effacement seen after gene transfer of dynR725A, and due to increase in the stress fibers formation observed in cultured podocytes.
To explore whether functional dynamin is required for the maintenance of FP morphology in healthy kidneys, it was examined whether expression of dominant negative dynK44A disrupts podocyte function. […] In contrast, podocin driven expression of dynK44A, the dynamin mutant that cannot bind GTP, caused FP effacement (FIG. 21B) and proteinuria (1.1±0.26 mg/ml) at the peak of gene expression […] after gene delivery (FIGS. 21D and 25C). […] In other words, tight regulation of the life-time of the GTP-bound form of dynamin appears to be required for normal FP morphology and ultrafiltration.
(§1) CatL plasmids encoding short and long CatL (Goulet et al., Biol Chem 387, 1285-1293 (2004)), Dyn1 plasmids (pcDNA-driven) or p2.5 Podocin-driven (Moeller et al., Genesis 35, 39-42 (2003)) were introduced into mice (n>10, each construct) using the TransIT in vivo gene delivery system according to the manufacturer's instruction (Mirus Bio Corporation, Madison, Wis.). 10 and 24 h after gene delivery, proteinuria was assessed by Multistix 8 SG strips (Bayer Corporation, Elkhart, Ind.), and Bradford protein assay (Sigma, Saint Louis, Mo.). From the same urines the protein creatinine ratio was determined with Albuwell M and Creatinine Companion protein creatinine ELISA kits (Exocell Inc., Philadelphia, Pa.).

CatL = test: Dynamin p40 fragment in kidney extracts after gene delivery and LPS injection; assay type: in vivo, mouse; conditions: LPS injected at the time of gene delivery
Source text: Next the cleavage pattern of dyn1 in kidney extracts following LPS injection was examined. Kidney cytosols were probed with antibody against the GTPase domain of dynamin, which detects p40. […] Western blotting also detected a dynamin fragment of ˜55 kD. As in cultured podocytes, the presence of this fragment was LPS- and CatL-independent (FIGS. 20B, lane 5 and 20C, lanes 1 and 2), further supporting the idea that it is generated by other proteases during tissue preparation.
Four mice kidneys were homogenized in buffer containing 20 mM HEPES pH 7.5, 100 mM NaCl, 1 mM MgCl2, 1 mM PMSF, proteinase inhibitors, calpain inhibitor (Calbiochem, San Diego, Calif.) and E-64d using dounce homogenizer. Subsequently, cytosol was centrifuged for 10 min at 7000 rpm. Proteins were solubilized by 1% Triton X, 1 h at 4° C., before it was spun at 50,000 rpm for 1 h.
as §1

podocytes = test: Actin stress fiber staining in cultured podocytes; assay type: cell-based, mouse; conditions: overexpression in cultured podocytes
Source text: This study examined the role of dynamin in actin dynamics of podocytes. An adenoviral expression system was utilized to obtain expression of various dynamin mutants with more than 90% infection efficiency in cultured differentiated mouse podocytes and analyzed the organization of the actin cytoskeleton, their migratory and endocytotic behavior (FIG. 1). […] This type of actin rearrangement in cultured podocytes is resembling actin rearrangement in damaged podocytes during proteinuria in situ (Smoyer and Mundel, 1998). […] Thus, the consequence on actin dynamics in podocytes was examined when dynamin is hyperactive by expressing known dominant activators, dynK694A and dynR725A (SEQ ID NO.4). Both mutants are predicted to live longer in the GTP-bound form. […] To further examine this surprising phenotype in a biological context, motility assays were performed next using a modified Boyden Chamber assay.
Since podocyte FP effacement is primarily driven by the rearrangement of the actin cytoskeleton (Asanuma et al., 2006), actin morphology was examined in cultured podocytes expressing different dynamin mutants. Podocytes were infected with various dynamin constructs using an adenoviral expression system that enables greater than 90% efficiency of infection. The experiments were performed using dyn1 (FIG. 22) as well as dyn2, with identical results. […] Thus, treatments which abolish actin stress fibers in cultured podocytes cause proteinuria in mice. […] Consistent with this notion, the deleterious effects of LPS (which reduces stress fibers) on kidney function were ameliorated by expression of dynR725A (which induces stress fibers).
Podocytes were grown under non-permissive conditions to 70% confluence. Cells were washed twice with 1×PBS and infected with 1.2 ml of serum-free DMEM media containing 100 μl transactivator virus, 100 μl virus expressing dyn1 or dyn2. After 2 h of infection at 37° C., media containing virus was replaced with full DMEM. If cells were treated with LPS or PAN, 50 μg/ml of LPS or 50 μg/ml PAN was added at this point. 18-24 h post-infection, cells were detached using trypsin and processed either for subcellular fractionation or tested in the motility assays as described in (Reiser et al., J Biol Chem 279, 34827-34832 (2004)). When stated, 20 μM of Z-FF-FMK CatL specific inhibitor (Calbiochem, San Diego, Calif.) was added simultaneously with addition of LPS.

podocyte FP = test: Podocyte foot process architecture by electron microscopy after gene delivery; assay type: in vivo, mouse; conditions: gene delivery into wildtype mice
Source text: Next it was explored whether gene delivery of dynamin mutants dynR725A and dynL356Q, G358V into mice can be expressed in podocytes and if this procedure can affect podocyte FP architecture and function. First, we needed to establish a safe and reliable detection system of transferred gene expression in podocytes. Therefore we analyzed which dynamin isoforms are expressed in podocytes by RT-PCR. Podocytes express mainly dynamin 2 and little dynamin 3 but no dynamin 1 (FIG. 5A). Gene-transfer CMV promotor driven dynamin 1 constructs were used because neuronal dynamin protein is normally not expressed in podocytes and could be easily tracked by a specific monoclonal dynamin 1 antibody (FIG. 5B). […] Monoclonal dynamin antibodies MAB 5402 […] were used, which predominantly recognize dynamin 1 (FIG. 5B). Labeling of glomerular sections with MAB 5402 detected some minimal background labeling of dynamin, representing endogenous dynamin 2 (FIG. 5C). The gene transfer of dynamin 1 expression vectors led to a strong expression of dynamin 1 in glomerular cells including podocytes (FIG. 5D). Some of this labeling was also detected in podocytes, which are marked positively by synaptopodin staining, resulting in a yellow staining pattern (FIG. 5E).

[1] = Table 2A, gene delivery into mice, t = 0

CatL, sequence (P06797 114-333 limits assumed): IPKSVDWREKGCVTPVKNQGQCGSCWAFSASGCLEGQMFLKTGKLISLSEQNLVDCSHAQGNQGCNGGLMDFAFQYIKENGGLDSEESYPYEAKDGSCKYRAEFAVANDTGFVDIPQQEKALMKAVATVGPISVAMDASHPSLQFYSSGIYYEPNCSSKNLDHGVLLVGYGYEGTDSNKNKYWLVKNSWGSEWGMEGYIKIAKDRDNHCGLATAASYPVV

Row | Molecule | Protein in the urine (mice; [1]) | Protein in the urine (mice; Table 2A, gene delivery into mice, t = 10 h) | Protein in the urine (mice; Table 2A, gene delivery into mice, t = 24 h) | proteinuria after gene delivery, in words (mice; healthy mice) | generation of p40 in kidney extracts, in words (CatL) | actin stress fibers, in words (podocytes) | podocyte FP architecture, in words (podocyte FP) | Protein in the urine (mice; Table 2A, gene delivery into mice, t = 10 h, listed as Dyn K44A) | Protein in the urine (mice; Table 2A, gene delivery into mice, t = 10 h, listed as K44A) | Protein in the urine (mice; Table 2A, gene delivery into mice, t = 24 h, listed as Dyn K44A) | Protein in the urine (mice; Table 2A, gene delivery into mice, t = 24 h, listed as K44A) | Protein in the urine (mice; Table 5 Basic Phenotype, podocin-driven vectors, t = 14 h)
1 | dynWT: wild type dynamin overexpressed by adenovirus or delivered as dynamin 1 cDNA | 0.27 ± 0.06 mg/mL | 0.37 ± 0.08 mg/mL | 0.42 ± 0.12 mg/mL | did not lead to increase of the protein in urine | generation of p40 | did not dramatically alter stress fiber pattern; also recorded: did not significantly alter the F-actin staining pattern | did not result in changes of podocyte FP architecture |  |  |  |  | 
2 | dynK44A: dominant-negative dynamin mutant that cannot bind GTP (protein, UniProt Q05193 1-864, looked up, variant K44A) Dynamin-1: MGNRGMEDLIPLVNRLQDAFSAIGQNADLDLPQIAVVGGQSAGASSVLENFVGRDFLPRGSGIVTRRPLVLQLVNATTEYAEFLHCKGKKFTDFEEVRLEIEAETDRVTGTNKGISPVPINLRVYSPHVLNLTLVDLPGMTKVPVGDQPPDIEFQIRDMLMQFVTKENCLILAVSPANSDLANSDALKVAKEVDPQGQRTIGVITKLDLMDEGTDARDVLENKLLPLRRGYIGVVNRSQKDIDGKKDITAALAAERKFFLSHPSYRHLADRMGTPYLQKVLNQQLTNHIRDTLPGLRNKLQSQLLSIEKEVEEYKNFRPDDPARKTKALLQMVQQFAVDFEKRIEGSGDQIDTYELSGGARINRIFHERFPFELVKMEFDEKELRREISYAIKNIHGIRTGLFTPDMAFETIVKKQVKKIREPCLKCVDMVISELISTVRQCTKKLQQYPRLREEMERIVTTHIREREGRTKEQVMLLIDIELAYMNTNHEDFIGFANAQQRSNQMNKKKTSGNQDEILVIRKGWLTINNIGIMKGGSKEYWFVLTAENLSWYKDDEEKEKKYMLSVDNLKLRDVEKGFMSSKHIFALFNTEQRNVYKDYRQLELACETQEEVDSWKASFLRAGVYPERVGDKEKASETEENGSDSFMHSMDPQLERQVETIRNLVDSYMAIVNKTVRDLMPKTIMHLMINNTKEFIFSELLANLYSCGDQNTLMEESAEQAQRRDEMLRMYHALKEALSIIGDINTTTVSTPMPPPVDDSWLQVQSVPAGRRSPTSSPTPQRRAPAVPPARPGSRGPAPGPPPAGSALGGAPPVPSRPGASPDPFGPPPQVPSRPNRAPPGVPSRSGQASPSRPESPRPPFDL | 0.23 ± 0.11 mg/mL |  |  |  |  | loss of stress fibers; also recorded: abolished stress fibers | induced a severe rearrangement of the actin based podocyte FPs | 1.18 ± 0.22 mg/mL | 1.18 mg/mL | 0.77 ± 0.11 mg/mL | 0.77 mg/mL | 1.1 ± 0.26 mg/mL
3 | dynK694A: dominant activator dynamin mutant impaired in self-assembly (protein) MGNRGMEDLIPLVNRLQDAFSAIGQNADLDLPQIAVVGGQSAGKSSVLENFVGRDFLPRGSGIVTRRPLVLQLVNATTEYAEFLHCKGKKFTDFEEVRLEIEAETDRVTGTNKGISPVPINLRVYSPHVLNLTLVDLPGMTKVPVGDQPPDIEFQIRDMLMQFVTKENCLILAVSPANSDLANSDALKVAKEVDPQGQRTIGVITKLDLMDEGTDARDVLENKLLPLRRGYIGVVNRSQKDIDGKKDITAALAAERKFFLSHPSYRHLADRMGTPYLQKVLNQQLTNHIRDTLPGLRNKLQSQLLSIEKEVEEYKNFRPDDPARKTKALLQMVQQFAVDFEKRIEGSGDQIDTYELSGGARINRIFHERFPFELVKMEFDEKELRREISYAIKNIHGIRTGLFTPDMAFETIVKKQVKKIREPCLKCVDMVISELISTVRQCTKKLQQYPRLREEMERIVTTHIREREGRTKEQVMLLIDIELAYMNTNHEDFIGFANAQQRSNQMNKKKTSGNQDEILVIRKGWLTINNIGIMKGGSKEYWFVLTAENLSWYKDDEEKEKKYMLSVDNLKLRDVEKGFMSSKHIFALFNTEQRNVYKDYRQLELACETQEEVDSWKASFLRAGVYPERVGDKEKASETEENGSDSFMHSMDPQLERQVETIRNLVDSYMAIVNKTVRDLMPKTIMHLMINNTAEFIFSELLANLYSCGDQNTLMEESAEQAQRRDEMLRMYHALKEALSIIGDINTTTVSTPMPPPVDDSWLQVQSVPAGRRSPTSSPTPQRRAPAVPPARPGSRGPAPGPPPAGSALGGAPPVPSRPGASPDPFGPPPQVPSRPNRAPPGVPSRSGQASPSRPESPRPPFDL |  |  |  |  |  | did not dramatically change actin stress fibers |  |  |  |  |  | 
